From patent US20150274826A1 (ARCH ONCOLOGY, published 2015) come the findings set out here.

Assay [1] deals with T1, human CD47 (human, UniProt Q08722 19-323).
T1 construct: whole, on cells; also called CD47 on human RBCs; CD47 on OV10 cells
The experiment in a line: flow cytometry on human RBCs, non-linear fit of median fluorescence. The protocol:
(§1) RBCs are incubated for 60 minutes on ice with tissue culture supernatants containing the secreted humanized antibodies at a concentration of 10 ng/ml in a solution of phosphate buffered saline, pH 7.2, 2.5 mM EDTA (PBS+E), or with various concentrations of purified antibodies. Cells are then washed with cold PBS+E, and incubated for an additional hour on ice with FITC labeled donkey anti-human antibody (Jackson Immuno Research Labs, West Grove, Pa.; Catalogue #709-096-149) in PBS+E. Cells are then washed with PBS+E, and antibody binding is analyzed using a BD FACSAria Cell Sorter (Becton Dickinson) or a C6 Accuri Flow Cytometer (Becton Dickinson). Antibody binding is quantitated by comparison of mean fluorescence values relative to that of chimeric antibody >VxP037-01LC (SEQ ID NO:7))/>VxPO37-01HC (SEQ ID NO:57). The mean fluorescence value for each antibody is divided by the mean fluorescence value for the chimeric antibody.
For orientation: Flow cytometry measures light scatter and fluorescence of single cells or particles in a stream.

In assay [2] the target is T1, human CD47. The experiment in a line: flow cytometry on RBCs, CHO supernatant 10 ng/ml. An outline of the steps:
(§2)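 RBCs incubated 60 min on ice with antibody supernatants at 10 ng/ml in PBS pH 7.2, 2.5 mM EDTA. Binding detected with FITC anti-human secondary (1 h, ice) by flow cytometry; fluorescence expressed relative to chimeric VxP037-01 reference.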

Assay [3] concerns the target T2, pig CD47 (pig, UniProt Q9GKE8 19-303).
T2 construct: whole, on cells; also called CD47 on porcine RBCs
T2 sequence (looked up): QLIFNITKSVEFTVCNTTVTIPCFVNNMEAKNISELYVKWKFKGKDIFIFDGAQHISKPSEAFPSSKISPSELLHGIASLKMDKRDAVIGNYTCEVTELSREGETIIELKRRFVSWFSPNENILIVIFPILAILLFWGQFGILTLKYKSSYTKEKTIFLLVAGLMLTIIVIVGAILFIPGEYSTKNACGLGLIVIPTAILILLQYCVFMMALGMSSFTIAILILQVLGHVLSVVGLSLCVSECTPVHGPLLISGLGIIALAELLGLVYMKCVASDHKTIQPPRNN
The experiment in a line: flow cytometry on RBCs, CHO supernatant 10 ng/ml. Summed up:
as §2

For assay [4], the target named is T3, dog CD47 (dog, UniProt A0A8I3PM61 19-310).
T3 construct: also called CD47 on dog RBCs
T3 sequence: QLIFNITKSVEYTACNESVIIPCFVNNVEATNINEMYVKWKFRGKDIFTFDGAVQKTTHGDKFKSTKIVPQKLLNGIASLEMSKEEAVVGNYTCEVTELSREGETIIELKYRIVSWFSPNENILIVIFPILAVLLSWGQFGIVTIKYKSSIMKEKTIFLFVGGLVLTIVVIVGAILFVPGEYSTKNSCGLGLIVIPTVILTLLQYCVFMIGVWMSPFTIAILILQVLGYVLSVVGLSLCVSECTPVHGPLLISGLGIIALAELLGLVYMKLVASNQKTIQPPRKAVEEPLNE
The assay is described as follows: flow cytometry on RBCs, CHO supernatant 10 ng/ml. Summed up: as §2

Assay [5] concerns the target T4, rat CD47 (rat, UniProt P97829 19-303).
T4 construct: whole, on cells; also called CD47 on rat RBCs
T4 sequence (looked up): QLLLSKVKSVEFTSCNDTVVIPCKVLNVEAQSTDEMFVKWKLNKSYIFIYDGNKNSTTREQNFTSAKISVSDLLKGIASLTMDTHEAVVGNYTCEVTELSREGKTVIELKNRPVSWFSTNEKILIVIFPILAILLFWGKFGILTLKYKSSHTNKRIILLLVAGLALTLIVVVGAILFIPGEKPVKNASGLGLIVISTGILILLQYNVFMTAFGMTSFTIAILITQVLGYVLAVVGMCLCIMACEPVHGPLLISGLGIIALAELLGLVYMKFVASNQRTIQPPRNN
The assay is described as follows: flow cytometry on RBCs, CHO supernatant 10 ng/ml. Summed up:
as §2

Assay [6] concerns the target T5, mouse CD47 (mouse, UniProt Q61735 19-303).
T5 construct: whole, on cells; also called CD47 on mouse RBCs; CD47 on 4T1 cells
T5 sequence (looked up): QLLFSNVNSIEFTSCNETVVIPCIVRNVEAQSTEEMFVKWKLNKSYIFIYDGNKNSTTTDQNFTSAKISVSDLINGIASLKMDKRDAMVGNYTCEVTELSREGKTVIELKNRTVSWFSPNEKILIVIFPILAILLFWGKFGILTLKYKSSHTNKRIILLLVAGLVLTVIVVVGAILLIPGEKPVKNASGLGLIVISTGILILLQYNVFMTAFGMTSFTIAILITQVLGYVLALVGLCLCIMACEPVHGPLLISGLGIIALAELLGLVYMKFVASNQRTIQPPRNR
The experiment in a line: flow cytometry on RBCs, CHO supernatant 10 ng/ml. An outline of the steps: as §2

For assay [7], the target named is T1, human CD47. The experiment in a line: flow cytometry on human RBCs, apparent Kd, non-linear fit. How it is done:
as §1

The target in assay [8] is T1, human CD47. The experiment in a line: cell-based ELISA on human OV10 cells, apparent Kd. How it is done:
(§3) OV10 cells are grown in IMDM medium containing 10% heat inactivated fetal bovine serum (BioWest; S01520) and 4T1 cells are grown in RMPI medium containing 10% heat inactivated fetal bovine serum (BioWest; S01520). One day before assay, 3×10⁴ cells are plated in 96 well cell bind plates (Corning #3300, VWR #66025-626) so that they are 95-100% confluent at the time of assay. Cells are washed and various concentrations of purified antibodies added in either IMDM or RPMI at 37° C. for 1 hour in […]. Cells are then washed with media and incubated for an additional hour at 37° C. with HRP labeled secondary anti-human antibody (Promega) diluted 1/2500 in media. Cells are washed three times with PBS, and the peroxidase substrate 3,3′,5,5′-tetramethylbenzidine is added (Sigma; Catalog #T4444). Reactions are terminated by the addition of HCl to 0.7N, and absorbance at 450 nm is determined using a Tecan model Infinite M200 plate reader. The apparent binding affinities of these clones to human and mouse cells is determined by non-linear fits (Prism GraphPad software). […] Agglutination of human RBCs is assessed following incubation of human RBCs with various concentrations of humanized blocking only clones. Blood is diluted (1:50) and washed 3 times with PBS/EDTA/BSA. RBCs are added to U-bottomed 96 well plates with equal volumes of the antibodies (75 μl) and incubated for 3 hrs at 37° C. and overnight at 4° C.
For orientation: ELISA stands for enzyme-linked immunosorbent assay.

Assay [9] addresses T5, mouse CD47. The experiment in a line: cell-based ELISA on mouse 4T1 cells, apparent Kd. The protocol: as §3

T1 sequence (Q08722 19-323): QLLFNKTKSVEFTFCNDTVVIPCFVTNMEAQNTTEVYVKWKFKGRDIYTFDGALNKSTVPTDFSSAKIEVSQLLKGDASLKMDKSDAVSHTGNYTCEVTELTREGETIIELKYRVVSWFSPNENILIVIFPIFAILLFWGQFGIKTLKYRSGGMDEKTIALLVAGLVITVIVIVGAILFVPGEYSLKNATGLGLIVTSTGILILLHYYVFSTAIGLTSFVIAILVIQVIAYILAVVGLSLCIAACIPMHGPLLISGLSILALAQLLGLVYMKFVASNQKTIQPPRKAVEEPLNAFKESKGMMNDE

B1: Clone 1 (pVxK7b-037-hum01-LC / pVxK7b-037-hum01-HC) (antibody, human IgG1, kappa)
heavy: not shown
light: DIVMTQTPLSLPVTPGEPASISCRSSQSLVHSNGNTYLHWYQQKPGKAPKLLIYKVSYRFSGVPDRFSGSGSGTDFTLKISRVEAEDVGVYYCSQNTHVPRTFGQGTKVEIKRTVAAPSVFIFPPSDEQLKSGTASVVCLLNNFYPREAKVQWKVDNALQSGNSQESVTEQDSKDSTYSLSSTLTLSKADYEKHKVYACEVTHQGLSSPVTKSFNRGEC
notes: also called Cl 1
In the case of B1, the Kd amounted to 0.226 mg/L in assay [1] and 1.51 nM in assay [7]. For the same molecule, the “mean fluorescence relative to chimeric antibody” value in assay [2] was determined as 1.1 ratio; in [3] it was 1.3 ratio; in [4] it was 1 ratio; in assay [5], 2.7 ratio; in assay [6], 1.7 ratio.

B2: Clone 13.1 (hum13 IgG1 N297Q) (antibody)
heavy: EVQLVQSGAEVKKPGESLRISCKGSGYTFTNYYVFWIRQSPSRGLEWLGDINPVNGDTNFNEKFKNRVTITADKSTSTAYMELSSLRSEDTAVYYCARGGYTMDYWGQGTLVTVSSASTKGPSVFPLAPSSKSTSGGTAALGCLVKDYFPEPVTVSWNSGALTSGVHTFPAVLQSSGLYSLSSVVTVPSSSLGTQTYICNVNHKPSNTKVDKKVEPKSCDKTHTCPPCPAPELLGGPSVFLFPPKPKDTLMISRTPEVTCVVVDVSHEDPEVKFNWYVDGVEVHNAKTKPREEQYQSTYRVVSVLTVLHQDWLNGKEYKCKVSNKALPAPIEKTISKAKGQPREPQVYTLPPSR
light: B1 light
notes: Fc mutant of Clone 13, IgG1 N297Q
Regarding B2, the Kd was found to be 0.0886 nM in assay [8], 0.183 mg/L in [1], 1.21 nM in assay [7] and 0.0867 nM in [9].

B3: Clone 1.1 (hum01 IgG1 N297Q) (antibody)
heavy: QVQLQESGPGLVKPSQTLSLTCTVSGYTFTNYYVFWVRQARGQRLEWIGDINPVNGDTNFNEKFKNRVTISADKSISTAYLQWSSLKASDTAMYYCARGGYTMDYWGQGTLVTVSSASTKGPSVFPLAPSSKSTSGGTAALGCLVKDYFPEPVTVSWNSGALTSGVHTFPAVLQSSGLYSLSSVVTVPSSSLGTQTYICNVNHKPSNTKVDKKVEPKSCDKTHTCPPCPAPELLGGPSVFLFPPKPKDTLMISRTPEVTCVVVDVSHEDPEVKFNWYVDGVEVHNAKTKPREEQYQSTYRVVSVLTVLHQDWLNGKEYKCKVSNKALPAPIEKTISKAKGQPREPQVYTLPPSR
light: B1 light
notes: Fc mutant of Clone 1, IgG1 N297Q; also called Cl 1.1
As to B3, the Kd in [8] is 0.148 nM; in [1], 0.307 mg/L; in [7], 2.04 nM; in assay [9], 0.132 nM.

B4: Clone 13 (pVxK7b-037-hum13-LC / pVxK7b-037-hum13-HC) (antibody, human IgG1, kappa)
heavy: not shown
light: B1 light
notes: also called Cl 13
Consider B4, for which the Kd in assay [1] was determined as 0.0864 mg/L; in assay [7], 0.58 nM. Moreover, the “mean fluorescence relative to chimeric antibody” value in assay [2] came out at 1.2 ratio; in assay [3], 1.4 ratio; in [4] it was 1 ratio; in assay [5] it was 3.1 ratio; in [6], 1.3 ratio.
